Laboratory results published in article PMC4186968, “Molecular Basis for Coordinating Transcription Termination with Noncoding RNA Degradation” (Molecular Cell, 2014).
Positions count from the first letter of the chain named. Names and notes keep the numbering of the source. Where a SMILES comes first, the peptide text is derived from it.

T1: Nrd1p CID (Saccharomyces cerevisiae, UniProt P53617)
T1 construct: the CID (residues 1–153) of Nrd1p; His6 (C); made in house
T1 sequence (P53617 1-153): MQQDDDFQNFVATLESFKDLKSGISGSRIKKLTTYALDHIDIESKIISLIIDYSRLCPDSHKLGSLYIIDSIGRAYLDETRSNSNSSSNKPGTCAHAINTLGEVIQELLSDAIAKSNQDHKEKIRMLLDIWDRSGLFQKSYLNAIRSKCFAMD

T2: Nrd1p CID (residues 1-153), P53617
T2 chain: T1 sequence (P53617 1-153)

T3: FAM-labeled Trf4p NIM peptide
T3 chain: DDDEDGYNPYTL

B1: FAM-labeled Trf4p NIM peptide E576A (peptide)
chain: DDDADGYNPYTL
B2: Nrd1p CID (residues 1-153), P53617 L20D (protein)
chain: T1 sequence (P53617 1-153) with L20D
B3: Nrd1p CID (residues 1-153), P53617 I130K (protein)
chain: T1 sequence (P53617 1-153) with I130K
B4: Nrd1p CID (residues 1-153), P53617 D70A (protein)
chain: T1 sequence (P53617 1-153) with D70A
B5: Nrd1p CID (residues 1-153), P53617 R28D (protein)
chain: T1 sequence (P53617 1-153) with R28D
B6: Nrd1p CID Ile130Lys (domain or fragment)
chain: T1 sequence (P53617 1-153) with I130K
B7: FAM-labeled Trf4p NIM peptide E576R (peptide)
chain: DDDRDGYNPYTL

How the values were obtained:
Nrd1p CID = biological target: T1, Nrd1p CID; assay: Equilibrium binding of FAM-labelled peptides to Nrd1p CID by fluorescence anisotropy (FA); parameters: species or system S. cerevisiae
[1] = biological target: T2, Nrd1p CID (residues 1-153), P53617; assay: fluorescence anisotropy (FA) equilibrium binding; settings: chain shown with the change
[2] = biological target: T3, FAM-labeled Trf4p NIM peptide; assay: fluorescence anisotropy (FA) equilibrium binding; settings: chain shown with the change
[3] = biological target: FAM-labeled Trf4p NIM peptide (S. cerevisiae); assay: fluorescence polarisation; fluorescence anisotropy; fluorescently labeled peptide titrated with Nrd1p CID; equilibrium binding in solution

| Molecule | Kd (Nrd1p CID) | Kd [2] | also measured |
| --- | --- | --- | --- |
| CC(C)C[C@H](NC(=O)[C@@H](NC(=O)[C@H](Cc1ccc(O)cc1)NC(=O)[C@@H]1CCCN1C(=O)[C@H](CC(N)=O)NC(=O)[C@H](Cc1ccc(O)cc1)NC(=O)CNC(=O)[C@H](CC(=O)O)NC(=O)[C@H](CCC(=O)O)NC(=O)[C@H](CC(=O)O)NC(=O)[C@H](CC(=O)O)NC(=O)[C@H](CC(=O)O)NC(=O)c1ccc2c(c1)C(=O)OC21c2ccc(O)cc2Oc2cc(O)ccc21)[C@@H](C)O)C(=O)O [Trf4p NIM] (HELM PEPTIDE1{[O=C1OC2(c3ccc(O)cc3Oc3cc(O)ccc32)c2ccc(C(=O)[*:2])cc21].D.D.D.E.D.G.Y.N.P.Y.T.L}$$$$V2.0; C-terminus assumed) | 1.09 ± 0.01 µM |  |  |
| CC(C)C[C@H](NC(=O)[C@@H](NC(=O)[C@H](Cc1ccc(O)cc1)NC(=O)[C@@H]1CCCN1C(=O)[C@H](CC(N)=O)NC(=O)[C@H](Cc1ccc(O)cc1)NC(=O)CNC(=O)[C@H](CC(=O)O)NC(=O)[C@H](CCC(=O)O)NC(=O)[C@H](CCCNC(=N)N)NC(=O)[C@H](CC(=O)O)NC(=O)[C@H](CC(=O)O)NC(=O)c1ccc2c(c1)C(=O)OC21c2ccc(O)cc2Oc2cc(O)ccc21)[C@@H](C)O)C(=O)O [D575R] (HELM PEPTIDE1{[O=C1OC2(c3ccc(O)cc3Oc3cc(O)ccc32)c2ccc(C(=O)[*:2])cc21].D.D.R.E.D.G.Y.N.P.Y.T.L}$$$$V2.0) | 7.7 ± 0.2 µM |  |  |
| CC(C)C[C@H](NC(=O)[C@@H](NC(=O)[C@H](Cc1ccc(O)cc1)NC(=O)[C@@H]1CCCN1C(=O)[C@H](CC(N)=O)NC(=O)[C@H](Cc1ccc(O)cc1)NC(=O)CNC(=O)[C@H](CCCNC(=N)N)NC(=O)[C@H](CCC(=O)O)NC(=O)[C@H](CC(=O)O)NC(=O)[C@H](CC(=O)O)NC(=O)[C@H](CC(=O)O)NC(=O)c1ccc2c(c1)C(=O)OC21c2ccc(O)cc2Oc2cc(O)ccc21)[C@@H](C)O)C(=O)O [D577R] (HELM PEPTIDE1{[O=C1OC2(c3ccc(O)cc3Oc3cc(O)ccc32)c2ccc(C(=O)[*:2])cc21].D.D.D.E.R.G.Y.N.P.Y.T.L}$$$$V2.0) | 24.2 ± 0.6 µM |  |  |
| CC(C)C[C@H](NC(=O)[C@@H](NC(=O)[C@H](Cc1ccc(O)cc1)NC(=O)[C@@H]1CCCN1C(=O)[C@H](C)NC(=O)[C@H](Cc1ccc(O)cc1)NC(=O)CNC(=O)[C@H](CC(=O)O)NC(=O)[C@H](CCC(=O)O)NC(=O)[C@H](CC(=O)O)NC(=O)[C@H](CC(=O)O)NC(=O)[C@H](CC(=O)O)NC(=O)c1ccc2c(c1)C(=O)OC21c2ccc(O)cc2Oc2cc(O)ccc21)[C@@H](C)O)C(=O)O [N580A] (HELM PEPTIDE1{[O=C1OC2(c3ccc(O)cc3Oc3cc(O)ccc32)c2ccc(C(=O)[*:2])cc21].D.D.D.E.D.G.Y.A.P.Y.T.L}$$$$V2.0) | 4.3 ± 0.1 µM |  |  |
| B1 |  |  | Kd [1]: 3.2 µM |
| B2 |  | 44.9 µM |  |
| B3 |  | 20.7 µM |  |
| B4 |  | 39.8 µM |  |
| B5 |  | 96.9 µM |  |
| B6 |  |  | fold decrease in binding affinity against wild-type Nrd1p CID [3]: 20 fold |
| B7 |  |  | Kd [1]: 4.8 µM |
